Laboratory results reported in patent US12059437B2, “Methods and compositions for hematopoietic stem cell mobilization” (The Regents of the University of California, priority 2019, dated 2024).

Key:
[1] = tested on: HSCs (cKIT+lineage-SCA1+CD27+FLK2- cells); test: HSC mobilization to the blood in mice (perfused blood, flow cytometry); format: in vivo, mouse
Protocol: FIG. 1A: Experimental design for 2-hour HSC mobilization with sildenafil citrate plus AMD3100 (top), or 5-day GCSF treatment (bottom). GCSF was administered to mice once daily for 4 days (250 μg/kg). Sildenafil citrate was administered via oral gavage (OG; 3 mg/kg) once, 1 hr prior to a single subcutaneous (SQ) injection of AMD3100 (2.5 mg/kg). […]
FIG. 2E: Experimental design for HSC mobilization with multiple daily doses of sildenafil citrate. Sildenafil citrate was administered orally (OG) at 10 mg/kg once daily for 3 days. AMD3100 (2.5 mg/kg-5 mg/kg) was injected subcutaneously (SQ) 1 hour after the third sildenafil citrate dose, followed 1 hour later by blood perfusion and analysis.
Mobilization/tissue isolation. Mice were treated with subcutaneous (SQ) injections of rhGCSF (Amgen, Thousand Oaks, CA, 250 μg/kg) or a single dose of AMD3100 (Sigma, 2.5 mg/kg or 5 mg/kg where specified), or by oral gavage (OG) with sildenafil citrate (Viagra®; Sigma; 3, 10 or 30 mg/kg) (Motta et al., 2015) as indicated. Maximum blood was obtained by perfusing the mouse with PBS/20 mM EDTA through the left ventricle, clipping the right atrium and collecting the pooled perfused blood in the chest cavity. The total blood was processed for cell counts and flow cytometry analysis, as described previously (Smith-Berdan et al., 2011, 2015). Briefly, cells were pelleted by centrifugation, washed with 2% donor calf serum in PBS to remove EDTA, then incubated with fluorescently conjugated antibodies for flow cytometry analysis or resuspended in HBSS for transplantation into conditioned recipients.
(§1) Flow cytometry. Cell labeling was performed on ice in 1× PBS with 5 mM EDTA and 2% serum. Antibodies used are listed in the supplemental table. Samples were analyzed for donor chimerism (detectable by either GFP or antibodies targeted at the CD45.1/2 locus) on an LSRII or AriaIII (Becton Dickinson, San Jose, CA), as described previously (Beaudin et al., 2016; Boyer et al., 2011, 2019; Leung et al., 2019; Smith-Berdan et al., 2011, 2015; Ugarte et al., 2015).

HSCs = test: Transplantation of mobilized blood into irradiated recipients (reconstitution, donor chimerism); format: in vivo, mouse; details: compared to sildenafil citrate plus AMD3100; total donor chimerism 20 weeks post-transplantation
From the text: FIG. 1E: Donor chimerism over 5 months in lethally irradiated mice transplanted with blood from mice mobilized with AMD3100 alone or with both sildenafil citrate and AMD3100 as in the schedule shown in FIG. 1A. UBC-GFP mice were used as the mobilized donor mice, enabling identification of donor derived (GFP+) cells versus the unlabeled cells of the wild-type recipients. N=5-7 mice per cohort in 3 independent experiments. Paired t-test; *p<0.05 and **p<0.01.
FIGS. 11 and 1J: Long-term multilineage engraftment upon serial transplantation of bone marrow cells from the primary recipients in FIGS. 1E-1H into secondary, lethally irradiated wt hosts. Total donor chimerism in the peripheral blood over the course of the experiment is shown on the left. Quantification of donor-derived B, T and GM cells, platelets and erythrocytes 20 weeks post-transplantation is shown on the right. Data represent three independent experiments, N=9-12 mice per cohort. Unpaired t-test; *p<0.05, **p<0.01, ***p<0.001.
Transplantation of mobilized HSPCs. […]
as §1, with “Cell labeling was performed on ice in 1× PBS with 5 mM EDTA and 2% serum. Antibodies used are listed in the supplemental table.” left out

c1cc(CN2CCCNCCNCCCNCC2)ccc1CN1CCCNCCNCCCNCC1 [AMD3100, reference compound]
increase of numbers of phenotypic HSCs compared to control mice ([1]; AMD3100 single SQ injection alone or plus a single oral sildenafil citrate dose (2-hour protocol), total perfused blood): 2.9 fold
numbers of HSCs in the blood 4 hrs post-treatment ([1]; perfusion and blood analysis 4 hours post AMD3100): return to steady-state levels
HSC mobilization ([1]; single subcutaneous dose): modest, but reproducible, HSC mobilization

B1: G-CSF: granulocyte-colony stimulating factor, rhGCSF (Amgen), standard mobilizing agent (protein, UniProt P09919 31-207, looked up)
Granulocyte …: TPLGPASSLPQSFLLKCLEQVRKIQGDGAALQEKLVSECATYKLCHPEELVLLGHSLGIPWAPLSSCPSQALQLAGCLSQLHSGLFLYQGLLQALEGISPELGPTLDTLQLDVADFATTIWQQMEELGMAPALQPTQGAMPAFASAFQRRAGGVLVASHLQSFLEVSYRVLRHLAQP
reconstitution of recipients by blood from mobilized donors (HSCs): reconstituted recipients more robustly
numbers of phenotypic HSCs in the blood compared to sildenafil citrate plus AMD3100 ([1]; 5-day GCSF protocol): did not lead to significantly higher numbers of phenotypic HSCs
numbers of HSCs in the bloodstream ([1]; 1 day after four consecutive days of G-CSF injections): ~3,400 HSCs/mouse
mobilization of HSCs and/or HPCs ([1]; FIGS. 2P and 2Q, GCSF 250 μg/kg for 4 days, AMD3100 5 mg/kg for 1 hour): effectively mobilizes HSCs and/or HPCs
